Measurements as given in patent US20190185562A1 (Regeneron, published 2019).

T1: extracellular domain of human LEPR, GPI-anchored on HEK293/hLEPR-GPI cells (human, UniProt P48357 22-839, GPI anchor at the C-terminus ; GPI anchor at the C-terminus, added through the carboxypeptidase M signal peptide. The protein is displayed on the HEK293 cell membrane.)
T1 sequence: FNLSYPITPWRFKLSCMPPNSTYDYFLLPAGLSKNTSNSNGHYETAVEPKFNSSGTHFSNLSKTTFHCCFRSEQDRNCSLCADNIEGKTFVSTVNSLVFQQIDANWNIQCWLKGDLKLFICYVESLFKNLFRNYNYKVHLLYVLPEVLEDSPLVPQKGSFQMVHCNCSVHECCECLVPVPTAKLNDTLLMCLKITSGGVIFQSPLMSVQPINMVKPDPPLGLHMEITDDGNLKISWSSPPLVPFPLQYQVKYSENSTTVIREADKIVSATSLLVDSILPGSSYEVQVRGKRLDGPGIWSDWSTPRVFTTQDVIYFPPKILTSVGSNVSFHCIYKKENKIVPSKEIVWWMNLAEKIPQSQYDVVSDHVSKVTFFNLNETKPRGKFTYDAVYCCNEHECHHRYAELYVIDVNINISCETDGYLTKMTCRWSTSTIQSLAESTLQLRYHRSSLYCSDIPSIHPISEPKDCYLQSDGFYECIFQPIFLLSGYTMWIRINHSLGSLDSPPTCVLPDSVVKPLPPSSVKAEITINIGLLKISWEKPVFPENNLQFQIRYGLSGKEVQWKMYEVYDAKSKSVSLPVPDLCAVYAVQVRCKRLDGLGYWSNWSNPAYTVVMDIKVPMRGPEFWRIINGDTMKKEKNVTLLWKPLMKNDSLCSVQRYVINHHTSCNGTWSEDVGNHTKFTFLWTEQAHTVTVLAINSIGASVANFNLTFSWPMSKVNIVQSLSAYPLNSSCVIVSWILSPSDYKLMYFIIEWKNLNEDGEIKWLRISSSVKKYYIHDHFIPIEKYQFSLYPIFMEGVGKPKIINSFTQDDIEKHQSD

T2: mutant human LEPR (Y1141F) on HEK293.STAT3.Luc.GP130.hLEPR (Y1141F) cells (human, UniProt P48357 22-1165)
T2 sequence (looked up): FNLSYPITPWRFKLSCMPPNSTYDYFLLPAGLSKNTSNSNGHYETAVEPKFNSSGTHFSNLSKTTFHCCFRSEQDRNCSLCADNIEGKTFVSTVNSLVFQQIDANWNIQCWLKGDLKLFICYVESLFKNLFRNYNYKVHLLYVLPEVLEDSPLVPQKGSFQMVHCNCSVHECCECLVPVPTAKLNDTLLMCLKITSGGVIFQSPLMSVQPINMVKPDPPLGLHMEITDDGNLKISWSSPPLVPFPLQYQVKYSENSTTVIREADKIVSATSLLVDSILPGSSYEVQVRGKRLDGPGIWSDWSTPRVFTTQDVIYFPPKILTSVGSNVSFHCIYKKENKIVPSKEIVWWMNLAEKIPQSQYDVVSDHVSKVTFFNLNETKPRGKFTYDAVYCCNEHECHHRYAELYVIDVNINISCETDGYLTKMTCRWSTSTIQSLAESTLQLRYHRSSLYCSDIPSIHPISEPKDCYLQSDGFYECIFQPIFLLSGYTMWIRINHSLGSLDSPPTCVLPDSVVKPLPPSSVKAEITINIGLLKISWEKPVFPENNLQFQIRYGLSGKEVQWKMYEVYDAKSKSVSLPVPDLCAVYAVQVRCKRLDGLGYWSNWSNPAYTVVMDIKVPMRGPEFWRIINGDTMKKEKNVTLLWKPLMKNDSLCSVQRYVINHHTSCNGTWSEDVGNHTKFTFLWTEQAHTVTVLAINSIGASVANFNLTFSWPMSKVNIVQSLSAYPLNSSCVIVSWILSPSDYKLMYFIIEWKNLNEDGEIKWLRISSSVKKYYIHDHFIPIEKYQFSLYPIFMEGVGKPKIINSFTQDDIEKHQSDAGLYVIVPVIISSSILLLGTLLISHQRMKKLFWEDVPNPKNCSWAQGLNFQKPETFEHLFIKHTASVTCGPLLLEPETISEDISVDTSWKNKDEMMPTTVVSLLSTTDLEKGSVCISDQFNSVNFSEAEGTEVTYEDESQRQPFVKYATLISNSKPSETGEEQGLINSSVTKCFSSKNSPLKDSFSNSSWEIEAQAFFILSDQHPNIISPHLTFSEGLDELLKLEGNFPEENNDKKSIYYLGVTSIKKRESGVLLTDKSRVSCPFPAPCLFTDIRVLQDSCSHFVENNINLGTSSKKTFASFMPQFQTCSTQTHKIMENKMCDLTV

T3: wild-type human GP130 on HEK293.STAT3.Luc.GP130.hLEPR reporter cells (human, UniProt P40189 23-918)
T3 sequence (looked up): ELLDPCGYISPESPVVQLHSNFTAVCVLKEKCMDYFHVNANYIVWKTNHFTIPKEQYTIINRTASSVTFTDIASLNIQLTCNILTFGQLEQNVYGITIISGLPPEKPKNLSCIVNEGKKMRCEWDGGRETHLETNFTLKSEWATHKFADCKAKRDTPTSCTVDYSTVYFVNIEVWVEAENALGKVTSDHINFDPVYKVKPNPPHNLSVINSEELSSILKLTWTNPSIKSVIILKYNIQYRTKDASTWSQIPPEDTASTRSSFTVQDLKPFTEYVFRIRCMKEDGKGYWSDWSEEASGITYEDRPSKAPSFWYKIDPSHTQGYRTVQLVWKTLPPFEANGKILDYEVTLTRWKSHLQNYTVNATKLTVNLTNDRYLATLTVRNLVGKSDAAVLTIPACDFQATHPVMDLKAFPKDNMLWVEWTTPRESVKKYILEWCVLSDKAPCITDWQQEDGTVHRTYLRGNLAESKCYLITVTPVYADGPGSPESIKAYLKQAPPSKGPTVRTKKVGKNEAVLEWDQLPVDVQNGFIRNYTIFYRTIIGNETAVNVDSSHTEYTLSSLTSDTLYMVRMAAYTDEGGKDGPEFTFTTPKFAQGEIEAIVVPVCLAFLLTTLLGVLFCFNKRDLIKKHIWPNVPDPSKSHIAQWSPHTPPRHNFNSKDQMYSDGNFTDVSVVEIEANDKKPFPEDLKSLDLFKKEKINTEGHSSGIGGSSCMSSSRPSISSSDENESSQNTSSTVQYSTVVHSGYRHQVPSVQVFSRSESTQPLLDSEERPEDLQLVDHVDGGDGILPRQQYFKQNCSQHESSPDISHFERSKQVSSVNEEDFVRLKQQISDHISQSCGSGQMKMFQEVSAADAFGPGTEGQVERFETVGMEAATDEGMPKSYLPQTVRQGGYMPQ

T4: full length human GP130 (leucine at position 2 changed to valine) on HEK293/Stat3-luc/gp130-2X Sort cells (human, UniProt P40189 23-918)
T4 construct: whole, on cells; also called HEK293/gp130 2X Sort
T4 sequence (looked up): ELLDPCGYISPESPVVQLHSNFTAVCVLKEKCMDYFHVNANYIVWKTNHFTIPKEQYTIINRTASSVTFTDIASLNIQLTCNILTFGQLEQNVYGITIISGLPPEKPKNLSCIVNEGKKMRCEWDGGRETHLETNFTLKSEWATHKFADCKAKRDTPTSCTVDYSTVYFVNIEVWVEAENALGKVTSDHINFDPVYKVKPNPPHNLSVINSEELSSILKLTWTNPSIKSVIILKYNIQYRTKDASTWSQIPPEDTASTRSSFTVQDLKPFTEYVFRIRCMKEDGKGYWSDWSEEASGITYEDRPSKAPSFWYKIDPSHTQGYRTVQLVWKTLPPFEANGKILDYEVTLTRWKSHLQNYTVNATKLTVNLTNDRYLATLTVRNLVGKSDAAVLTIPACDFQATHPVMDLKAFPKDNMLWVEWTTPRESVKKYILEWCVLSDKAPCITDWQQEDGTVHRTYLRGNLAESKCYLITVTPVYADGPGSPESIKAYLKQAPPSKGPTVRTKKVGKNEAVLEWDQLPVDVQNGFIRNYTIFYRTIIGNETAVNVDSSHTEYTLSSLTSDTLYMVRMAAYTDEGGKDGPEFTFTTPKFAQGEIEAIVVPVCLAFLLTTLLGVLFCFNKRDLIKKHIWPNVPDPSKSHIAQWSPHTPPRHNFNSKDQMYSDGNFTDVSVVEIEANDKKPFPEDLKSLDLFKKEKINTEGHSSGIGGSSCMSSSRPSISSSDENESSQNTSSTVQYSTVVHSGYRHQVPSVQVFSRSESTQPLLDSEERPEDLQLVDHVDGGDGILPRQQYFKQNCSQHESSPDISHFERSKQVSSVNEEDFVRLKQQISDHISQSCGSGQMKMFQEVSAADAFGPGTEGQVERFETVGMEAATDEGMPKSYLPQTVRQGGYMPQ


How the values were obtained:
[1] = biological target: T1, extracellular domain of human LEPR, …; assay: FACS, 200 nM antibody, HEK293/hLEPR-GPI cells, No Leptin
Procedure: (§1) For the FACS analysis, 0.5×10^6 cells/well of HEK293 parental cells, HEK293/Stat3-luc/gp130-2X Sort cells, and HEK293/hLEPR-GPI cells, were incubated with 200 nM of the conventional antibodies against either GP130 or LEPR or with LEPR×GP130 bispecific antibodies, along with isotype control antibodies at 4° C. in PBS (without calcium and magnesium) containing 2% FBS.
(§2) Cells were fixed using BD CytoFix™ (Becton Dickinson, #554655) and analyzed on an IQue® (Intellicyt) Flow Cytometer. Unstained and secondary antibody alone controls were also tested for all cell lines. The results were analyzed using ForeCyt® (IntelliCyt) and FlowJo version 10 softwares to determine the geometric means of fluorescence for viable cells.

[2] = biological target: T1, extracellular domain of human LEPR, …; assay: FACS, 200 nM antibody, HEK293/hLEPR-GPI cells, 1 µM Leptin present
Procedure: as §1, §2

[3] = biological target: T2, mutant human LEPR (Y1141F) on …; assay: cell-based or functional assay
[4] = biological target: T3, wild-type human GP130 on …; assay: cell-based or functional assay
[5] = biological target: T4, full length human GP130 (leucine at …); assay: FACS, 200 nM antibody, HEK293/gp130 2X Sort cells
Procedure: as §1, §2

| Binder | Binding Ratio: Normalized to Unstained Sample of Each Cell Line (FL4-A) [1] [ratio] | Binding Ratio: Normalized to Unstained Sample of Each Cell Line (FL4-A) [2] [ratio] | Percentage activation as compared to hOSM [3] [%] | EC50 (M), STAT3-luciferase activation of HEK293.STAT3.Luc.GP130.hLEPR (Y1141F) cells, 10 nM leptin [4] [M] | Percentage activation as compared to hOSM [4] [%] | Binding Ratio: Normalized to Unstained Sample of Each Cell Line (FL4-A) [5] [ratio] |
| --- | --- | --- | --- | --- | --- | --- |
| mAb18446 (antibody, V domains shown, Conventional anti-LEPR antibody; also called mAB18446 (anti-LEPR mAb)) VH: EVQLVESGGGLVQPGGSLRLSCAASGFTFSNYGMTWVRQAPGKGLEWVSAITGGGGSTYYSNSVKGRFTISRDNSKNTVYLRMNSVRAEDTAVYYCAKYKWNFVDDWGQGTTVTVSS VL: not shown | 7020 | 6390 | – | – | – | – |
| bsAb21236D (bispecific antibody, V domains shown, LEPR x GP130 bispecific with common light chain; also called H4H21236D; bsAb21236 (LEPR × GP130)) VH 1: QVQLQESGPGLVKPSQTLSLTCTVSGGSISSGGDYWSWIRQLPGKGLEWIGYIYYSGSAYYNPSLKSRGTISIDTSKNQFSLKLTSVTAADTAVYFCVKLRFLEWFLGGWFGPWGQGTLVTVSS VH 2: QVQLVESGGGLVKPGGSLRLSCAASGFTFSDYYMTWIRQTPGKGLDWVSYISSSGTNKYNADSVKGRFTISRDNAKNSLYLQMNSLRAEDTAVYYCVRDPPWGMDVWGQGTTVTVSS VL: not shown | 4420 | 3600 | 25 | 2.11e-09 | 25 | 132 |
| mAb18445 (antibody, V domains shown, Conventional anti-LEPR antibody; also called mAB18445 (anti-LEPR mAb)) VH: QVQLQESGPGLVKPSQTLSLTCTVSGGSISSGGDYWSWIRQLPGKGLEWIGYIYYSGSAYYNPSLKSRGTISIDTSKNQFSLKLTSVTAADTAVYFCVKLRFLEWFLGGWFGPWGQGTLVTVSS VL: not shown | 4710 | 4250 | – | – | – | – |
